Measured values taken from the supplement of paper PMC9112550, “Optimization of the antimicrobial peptide Bac7 by deep mutational scanning” (BMC Biology, 2022).

Test system: Escherichia coli TOP10
Test: shrunken log2 fold change of peptide-encoding DNA abundance (4.5 h post-induction vs induction); higher = less antimicrobial activity (less host growth inhibition)
Settings: time post-induction: 4.5 h; library: site-saturation at positions 5, 18, 19, 20
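Further: peptides expressed intracellularly from a pBAD plasmid library in pooled LB shake-flask culture, induced with 0.3% L-arabinose, DNA abundance read by NGS, three biological replicates, DESeq2 with apeglm shrinkage.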

Sequence	shrunken log2 fold change
RRIRHRPPRLPRPRPRPQAPPRP	-0.0401
RRIRWRPPRLPRPRPRPVHGPRP	0.492
RRIRCRPPRLPRPRPRPMPVPRP	0.161
RRIRSRPPRLPRPRPRPRKPPRP	0.0197
RRIRRRPPRLPRPRPRPRSFPRP	0.401
RRIRKRPPRLPRPRPRPECAPRP	0.339
RRIRGRPPRLPRPRPRPRYLPRP	0.282
RRIRPRPPRLPRPRPRPTQVPRP	0.124
RRIRHRPPRLPRPRPRPCNNPRP	-0.188
RRIRSRPPRLPRPRPRPNSWPRP	0.0508
RRIRWRPPRLPRPRPRPPTGPRP	0.23
RRIRMRPPRLPRPRPRPRFRPRP	0.784
RRIRARPPRLPRPRPRPHFVPRP	0.0302
RRIRHRPPRLPRPRPRPAGMPRP	-0.411
RRIRMRPPRLPRPRPRPFMFPRP	0.0892
RRIRIRPPRLPRPRPRPCCDPRP	-0.67
RRIRTRPPRLPRPRPRPPDTPRP	0.0652
RRIRIRPPRLPRPRPRPANRPRP	-0.159
RRIRQRPPRLPRPRPRPRHDPRP	0.0818
RRIRGRPPRLPRPRPRPSPKPRP	0.619
RRIRLRPPRLPRPRPRPNEYPRP	-0.321
RRIRSRPPRLPRPRPRPNVVPRP	-0.0558
RRIRSRPPRLPRPRPRPPHLPRP	-0.00867
RRIRRRPPRLPRPRPRPHRRPRP	-0.000685
RRIRHRPPRLPRPRPRPQRPPRP	0.183

Sequence	shrunken log2 fold change
RRIRCRPPRLPRPRPRPKLMPRP	-0.0168
RRIRRRPPRLPRPRPRPCDPPRP	0.0316
RRIRSRPPRLPRPRPRPMGIPRP	0.0414
RRIRCRPPRLPRPRPRPKCFPRP	-0.372
RRIRERPPRLPRPRPRPQKCPRP	-0.202
RRIRDRPPRLPRPRPRPCWQPRP	0.0562
RRIRERPPRLPRPRPRPVGEPRP	-0.0892
RRIRGRPPRLPRPRPRPVHSPRP	0.0124
RRIRGRPPRLPRPRPRPNMRPRP	1.08
RRIRLRPPRLPRPRPRPQCVPRP	0.0615
RRIRLRPPRLPRPRPRPSYEPRP	-0.496
RRIRPRPPRLPRPRPRPYTMPRP	0.0535
RRIRDRPPRLPRPRPRPDEVPRP	-0.01
RRIRRRPPRLPRPRPRPDCHPRP	0.619
RRIRMRPPRLPRPRPRPWCYPRP	-0.162
RRIRTRPPRLPRPRPRPMTQPRP	0.13
RRIRMRPPRLPRPRPRPCDWPRP	0.179
RRIRIRPPRLPRPRPRPKTLPRP	-0.229
RRIRYRPPRLPRPRPRPINEPRP	-0.181
RRIRVRPPRLPRPRPRPEALPRP	-0.00459
RRIRMRPPRLPRPRPRPVCHPRP	0.224
RRIRRRPPRLPRPRPRPENHPRP	0.0228
RRIRVRPPRLPRPRPRPDDGPRP	0.0292
RRIRNRPPRLPRPRPRPVVCPRP	-0.06
RRIRNRPPRLPRPRPRPNTQPRP	-0.148

Sequence	shrunken log2 fold change
RRIRERPPRLPRPRPRPTGSPRP	-0.211
RRIRVRPPRLPRPRPRPMLHPRP	-0.192
RRIRTRPPRLPRPRPRPQRQPRP	0.455
RRIRSRPPRLPRPRPRPHQEPRP	-0.0261
RRIRDRPPRLPRPRPRPQAYPRP	0.18
RRIRERPPRLPRPRPRPEPGPRP	0.667
RRIRSRPPRLPRPRPRPRDCPRP	0.686
RRIRQRPPRLPRPRPRPCNQPRP	-0.213
RRIRARPPRLPRPRPRPQHCPRP	0.138
RRIRCRPPRLPRPRPRPKGFPRP	0.00848
RRIRYRPPRLPRPRPRPTQIPRP	-0.292
RRIRTRPPRLPRPRPRPTFHPRP	-0.174
RRIRARPPRLPRPRPRPQTIPRP	-0.196
RRIRNRPPRLPRPRPRPHTDPRP	-0.373
RRIRARPPRLPRPRPRPIPLPRP	0.0456
RRIRRRPPRLPRPRPRPKHQPRP	1.57
RRIRERPPRLPRPRPRPQTHPRP	-0.359
RRIRLRPPRLPRPRPRPMGDPRP	0.0227
RRIRWRPPRLPRPRPRPSEQPRP	-0.247
RRIRARPPRLPRPRPRPPIKPRP	-0.0438
RRIRERPPRLPRPRPRPNEFPRP	-0.0497
RRIRCRPPRLPRPRPRPVQSPRP	0.132
RRIRQRPPRLPRPRPRPQDWPRP	-0.146
RRIRMRPPRLPRPRPRPTHEPRP	0.439
RRIRCRPPRLPRPRPRPAMVPRP	0.204

Sequence	shrunken log2 fold change
RRIRLRPPRLPRPRPRPWKFPRP	-0.00232
RRIRIRPPRLPRPRPRPFKTPRP	0.0132
RRIRCRPPRLPRPRPRPWQRPRP	0.109
RRIRYRPPRLPRPRPRPTINPRP	-1.41
RRIRSRPPRLPRPRPRPEIEPRP	0.0942
RRIRCRPPRLPRPRPRPHGDPRP	-0.0473
RRIRTRPPRLPRPRPRPTMDPRP	-0.436
RRIRSRPPRLPRPRPRPFYIPRP	-0.608
RRIRFRPPRLPRPRPRPNIKPRP	-0.504
RRIRGRPPRLPRPRPRPGGVPRP	1.06
RRIRYRPPRLPRPRPRPHNMPRP	-0.17
RRIRGRPPRLPRPRPRPSQTPRP	1.08
RRIRSRPPRLPRPRPRPKINPRP	-0.424
RRIRVRPPRLPRPRPRPRRYPRP	-0.0486
RRIRHRPPRLPRPRPRPCKMPRP	-0.134
RRIRVRPPRLPRPRPRPRFIPRP	-0.318
RRIRIRPPRLPRPRPRPKPIPRP	-0.0437
RRIRFRPPRLPRPRPRPRVEPRP	0.61
RRIRRRPPRLPRPRPRPEICPRP	0.181
RRIRVRPPRLPRPRPRPLINPRP	-0.354
RRIRERPPRLPRPRPRPNKPPRP	-0.0937
RRIRSRPPRLPRPRPRPSRIPRP	-0.106
RRIRKRPPRLPRPRPRPFNLPRP	-0.0494
RRIRFRPPRLPRPRPRPMLSPRP	-0.0375
RRIRDRPPRLPRPRPRPPFKPRP	0.18

Sequence	shrunken log2 fold change
RRIRCRPPRLPRPRPRPYLDPRP	-0.575
RRIRYRPPRLPRPRPRPNYMPRP	-0.357
RRIRKRPPRLPRPRPRPINLPRP	-0.00204
RRIRERPPRLPRPRPRPWIVPRP	-0.00567
RRIRFRPPRLPRPRPRPRNDPRP	-0.218
RRIRMRPPRLPRPRPRPDDHPRP	0.00288
RRIRFRPPRLPRPRPRPCLAPRP	-0.245
RRIRWRPPRLPRPRPRPRYLPRP	-0.382
RRIRKRPPRLPRPRPRPKITPRP	0.0975
RRIRKRPPRLPRPRPRPHPIPRP	0.0828
RRIRPRPPRLPRPRPRPDEFPRP	-0.203
RRIRKRPPRLPRPRPRPTLDPRP	0.877
RRIRERPPRLPRPRPRPNVFPRP	-0.189
RRIRQRPPRLPRPRPRPLLDPRP	0.525
RRIRERPPRLPRPRPRPNTYPRP	-0.667
RRIRDRPPRLPRPRPRPQNPPRP	-0.00133
RRIRFRPPRLPRPRPRPILNPRP	-0.692
RRIRNRPPRLPRPRPRPSDWPRP	0.0113
RRIRLRPPRLPRPRPRPTNVPRP	-0.165
RRIRARPPRLPRPRPRPEMCPRP	1.17
RRIRKRPPRLPRPRPRPMAMPRP	0.325
RRIRCRPPRLPRPRPRPQTAPRP	0.225
RRIRNRPPRLPRPRPRPKDAPRP	0.0655
RRIRHRPPRLPRPRPRPHSFPRP	-0.0282
RRIRWRPPRLPRPRPRPHDAPRP	-0.145
